Measurements from the RNAGym collection of RNA variant scans (doi:10.7554/elife.90254).

B1: LINE1-full (parent)
chain: UACGUAGGUGGUUUUCCCCUGAUAGUGCUAAGGGGGCCUGGAAGUUUGGACUGGGCAGAGCUCAACACAGCGUGGCAAAGUGGCUGUGGCUAGACUGCCUCUCUGGAUUCCUCGUCACUCAGCAGGGCAUCUCUGAGAGAAAUGCC

Variants of: B1
Assay: self-cleavage, relative activity (ratio to wild type); higher = more cleavage; in vitro, sequencing; the parent is a self-cleaving ribozyme

Variant | self-cleavage
UACGUAGGUGGUUUUCCCCUGAUAGUGCUAAGGGGGCCUGGAAGAUUGGACUGGGCAGAGCUCAACACAGCGUGGCAAAGUGGCUGUGGCUAGUCUGCCUCUCUGGAUUCCUCGUCACUCAGCAGGGCAUCUCUGAGAGAAAUGCC [U45A A94U] | 0.2
UACGUAGGUGGUUUUCCCCUGAUAGUGCUAAGGGGGCCUGGAAGAUUGGACUGGGCAGAGCUCAACACAGCGUGGCAAAGUGGCUGUGGCUAGGCUGCCUCUCUGGAUUCCUCGUCACUCAGCAGGGCAUCUCUGAGAGAAAUGCC [U45A A94G] | 0.05
UACGUAGGUGGUUUUCCCCUGAUAGUGCUAAGGGGGCCUGGAAUUUCGGACUGGGCAGAGCUCAACACAGCGUGGCAAAGUGGCUGUGGCUAGACUGCCUCUCUGGAUUCCUCGUCACUCAGCAGGGCAUCUCUGAGAGAAAUGCC [G44U U47C] | 1.45
UACGUAGGUGGUUUUCCCCUGAUAGUGCUAAGGGGGCCUGGAAGAUUGGACUGGGCAGAGCUCAACACAGCGUGGCAAAGUGGCUGUGGCUAGACUGCCUCUCUGGAUUCCUCGUCACUCAGCGGGGCAUCUCUGAGAGAAAUGCC [U45A A124G] | 0.41
UACGUAGGUGGUUUUCCCCUGAUAGUGCUAAGGGGGCCUGGAAGAUUGGACUGGGCAGAGCUCAACACAGCGUGGCGAAGUGGCUGUGGCUAGACUGCCUCUCUGGAUUCCUCGUCACUCAGCAGGGCAUCUCUGAGAGAAAUGCC [U45A A77G] | 1.56
UACGUAGGUGGUUUUCCCCUGAUAGUGCUAAGGGGGCCUGGAAUUUUGGACUGGGCAGAGCUCAACACAGCGUGGCAAAGUGGCUGUGGCUAGACGGCCUCUCUGGAUUCCUCGUCACUCAGCAGGGCAUCUCUGAGAGAAAUGCC [G44U U96G] | 0.06
UACGUAGGUGGUUUUCCCCUGAUAGUGCUAAGGGGGCCUGGAAGAUUGGACUGGGCAGAGCUCAACACAGCGUGGCAUAGUGGCUGUGGCUAGACUGCCUCUCUGGAUUCCUCGUCACUCAGCAGGGCAUCUCUGAGAGAAAUGCC [U45A A78U] | 1.99
UACGUAGGUGGUUUUCCCCUGAUAGUGCUAAGGGGGCCUGGAAUUUUGGACUGGGCAGAGCUCAACACGGCGUGGCAAAGUGGCUGUGGCUAGACUGCCUCUCUGGAUUCCUCGUCACUCAGCAGGGCAUCUCUGAGAGAAAUGCC [G44U A69G] | 0.66
UACGUAGGUGGUUUUCCCCUGAUAGUGCUAAGGGGGCCUGGAAGAUUGGACUGGGCAGAGCUCAACACAGCGUGGCAAAGUGGCUGUGGCUAGACUGCCUCUCUGGAUUCCUCUUCACUCAGCAGGGCAUCUCUGAGAGAAAUGCC [U45A G114U] | 1.46
UACGUAGGUGGUUUUCCCCUGAUAGUGCUAAGGGGGCCUGGAAGAUUGGACUGGGCAGAGCUCAACACAGCGUGGCAAAGUGGCUGUGGCUAGACUGCCUCUCUGGAUUCCUCGUCACUCGGCAGGGCAUCUCUGAGAGAAAUGCC [U45A A121G] | 1.88
UACGUAGGUGGUUUUCCCCUGAUAGUGCUAAGGGGGCCUGGAAGAUUGGACUGGGCAGAGCUCAACACAGCGUGGCAAAGUGGCUGUGGCUAGACUGCCUCUCUGGAUUCCUCGUCACUCCGCAGGGCAUCUCUGAGAGAAAUGCC [U45A A121C] | 1.62
UACGUAGGUGGUUUUCCCCUGAUAGUGCUAAGGGGGCCUGGAAGAUUGGACUGGGCAGAGCUCAACACAGCGUGGCAAAGUGGCUGUGGCUAGACUGCCUCUCUGGAUUCCUCGUCACUCUGCAGGGCAUCUCUGAGAGAAAUGCC [U45A A121U] | 0.99
UACGUAGGUGGUUUUCCCCUGAUAGUGCUAAGGGGGCCUGGAAUUUUGGACUGGGCAGAGCUCAACACAGCGUGGCAAAGUGGCUGUGGCUAGACUGCCUCUCUGGAUCCCUCGUCACUCAGCAGGGCAUCUCUGAGAGAAAUGCC [G44U U109C] | 1.31
UACGUAGGUGGUUUUCCCCUGAUAGUGCUAAGGGGGCCUGGAAGAUUGGACUGGGCUGAGCUCAACACAGCGUGGCAAAGUGGCUGUGGCUAGACUGCCUCUCUGGAUUCCUCGUCACUCAGCAGGGCAUCUCUGAGAGAAAUGCC [U45A A57U] | 0.08
UACGUAGGUGGUUUUCCCCUGAUAGUGCUAAGGGGGCCUGGAAGAUUGGACUGGGCGGAGCUCAACACAGCGUGGCAAAGUGGCUGUGGCUAGACUGCCUCUCUGGAUUCCUCGUCACUCAGCAGGGCAUCUCUGAGAGAAAUGCC [U45A A57G] | 1.01
UACGUAGGUGGUUUUCCCCUGAUAGUGCUAAGGGGGCCUGGAAGAUUGGACUGGGCAGAGCUCAACACAGCGUGGCAAAGUGGCUGUGGCUAGACUGCCUCUCUGGAUUCCUCGUCUCUCAGCAGGGCAUCUCUGAGAGAAAUGCC [U45A A117U] | 0.76
UACGUAGGUGGUUUUCCCCUGAUAGUGCUAAGGGGGCCUGGAAGAUUGGACUGGGCAGAGCUCAACACAGCGUGGCAAAGUGGCUGUGGCUAGACUGCCUCUCUGGAUUCCUCGUCGCUCAGCAGGGCAUCUCUGAGAGAAAUGCC [U45A A117G] | 1.48
UACGUAGGUGGUUUUCCCCUGAUAGUGCUAAGGGGGCCUGGAAUUUUGGACUGGGCAGAGCUCAACACAGCGUGGCAAAGUGGCUGUGGCUAGACUGCCUCUCUGGAUUCCUCGUCACUCAGCAGGGCAUCUCUGAGAGAAGUGCC [G44U A142G] | 1.68
UACGUAGGUGGUUUUCCCCUGAUAGUGCUAAGGGGGCCUGGAAGAUUGGACUGGGCAGAGCUCAACACAGCGUGGCAAAGUGGCUGUGGCUAGACUGCCUCUCUGGAUUCCUCGUCACUCAGCAGGGCAUCUCUGAGAGAGAUGCC [U45A A141G] | 1.06
UACGUAGGUGGUUUUCCCCUGAUAGUGCUAAGGGGGCCUGGAAGAUUGGACUGGGCAGAGCUCAACACAGCGUGGCAAAGUGGCUGUGGCUAGACUGCCUCUCUGGAUUCCUCGUCACUCAGCAGGGCAUCUCUGAGAGAAAUGCU [U45A C146U] | 1.37

Variant | self-cleavage
UACGUAGGUGGUUUUCCCCUGAUAGUGCUAAGGGGGCCUGGAAGAUUGGACUGGGCAGAGCACAACACAGCGUGGCAAAGUGGCUGUGGCUAGACUGCCUCUCUGGAUUCCUCGUCACUCAGCAGGGCAUCUCUGAGAGAAAUGCC [U45A U62A] | 0
UACGUAGGUGGUUUUCCCCUGAUAGUGCUAAGGGGGCCUGGAAGAUUGGACUGGGCAGAGCCCAACACAGCGUGGCAAAGUGGCUGUGGCUAGACUGCCUCUCUGGAUUCCUCGUCACUCAGCAGGGCAUCUCUGAGAGAAAUGCC [U45A U62C] | 0.03
UACGUAGGUGGUUUUCCCCUGAUAGUGCUAAGGGGGCCUGGAAUUUUGGACUGGGCAGAGCUCGACACAGCGUGGCAAAGUGGCUGUGGCUAGACUGCCUCUCUGGAUUCCUCGUCACUCAGCAGGGCAUCUCUGAGAGAAAUGCC [G44U A64G] | 0.12
UACGUAGGUGGUUUUCCCCUGAUAGUGCUAAGGGGGCCUGGAAGAUUGGACUGGGCAGAACUCAACACAGCGUGGCAAAGUGGCUGUGGCUAGACUGCCUCUCUGGAUUCCUCGUCACUCAGCAGGGCAUCUCUGAGAGAAAUGCC [U45A G60A] | 0.03
UACGUAGGUGGUUUUCCCCUGAUAGUGCUAAGGGGGCCUGGAAGAUUGGACCGGGCAGAGCUCAACACAGCGUGGCAAAGUGGCUGUGGCUAGACUGCCUCUCUGGAUUCCUCGUCACUCAGCAGGGCAUCUCUGAGAGAAAUGCC [U45A U52C] | 1.46
UACGUAGGUGGUUUUCCCCUGAUAGUGCUAAGGGGGCCUGGAAGAUUGGACUGGGCAGAGCUCAACACAGCGUGGCAAAGUGGCAGUGGCUAGACUGCCUCUCUGGAUUCCUCGUCACUCAGCAGGGCAUCUCUGAGAGAAAUGCC [U45A U85A] | 0.06
UACGUAGGUGGUUUUCCCCUGAUAGUGCUAAGGGGGCCUGGAAGAUUGGACUGGGCAGAGCUCAACGCAGCGUGGCAAAGUGGCUGUGGCUAGACUGCCUCUCUGGAUUCCUCGUCACUCAGCAGGGCAUCUCUGAGAGAAAUGCC [U45A A67G] | 0.37
UACGUAGGUGGUUUUCCCCUGAUAGUGCUAAGGGGGCCUGGAAGAUUGGACUGGGCAGAGCUCAACACAGCGUGGCAAAGUGGCUGAGGCUAGACUGCCUCUCUGGAUUCCUCGUCACUCAGCAGGGCAUCUCUGAGAGAAAUGCC [U45A U87A] | 0.09
UACGUAGGUGGUUUUCCCCUGAUAGUGCUAAGGGGGCCUGGAAGAUUGGACUGGGCAGAGCUCAACACAGCGUGGCAAAGUGGCUGUGGCUAGACUGCCUCUCUGGGUUCCUCGUCACUCAGCAGGGCAUCUCUGAGAGAAAUGCC [U45A A107G] | 1.44
UACGUAGGUGGUUUUCCCCUGAUAGUGCUAAGGGGGCCUGGAAGAUUGGACUGGGCAGAGCUCAACACAGCGUGGCAAAGUGGCUGUGCCUAGACUGCCUCUCUGGAUUCCUCGUCACUCAGCAGGGCAUCUCUGAGAGAAAUGCC [U45A G89C] | 0.31
UACGUAGGUGGUUUUCCCCUGAUAGUGCUAAGGGGGCCUGGAAUUUUGGACUGGGCAGAGCUCAACACAGCGUGGCAAAGUGGCUGUGGCUAGACUGCCUCUCUGGAUUCCUCGUCACUCAGCAGGGCAUCUCUGAGAGAAAUGCC [G44U] | 1.56
UACGUAGGUGGUUUUCCCCUGAUAGUGCUAAGGGGGCCUGGAAGAUUGGACUGGGCAGAGCUCAACACAGCGUGGCAAAGUGGCUGUGGCUAGACUGCCUCUCUGGAUUCCUCGUCACUCAGCAGGGCAUCUCUGGGAGAAAUGCC [U45A A136G] | 2
UACGUAGGUGGUUUUCCCCUGAUAGUGCUAAGGGGGCCUGGAAUUUUGGACUGGGCAGAGCUCAACACAGCGUGGCAAAGUGGCUGUGGCUAGACUGCCUCUCUGGGUUCCUCGUCACUCAGCAGGGCAUCUCUGAGAGAAAUGCC [G44U A107G] | 1.7
UACGUAGGUGGUUUUCCCCUGAUAGUGCUAAGGGGGCCUGGAAGAUUGGACUGGGCAGAGCUCAACACAGCGUGGCAAAGUGGCUGUGGCUAGACUGCCUCUCUGGAUUCCUCGUCACUCAGCAGGGCAUCUCUGAUAGAAAUGCC [U45A G137U] | 1.77
UACGUAGGUGGUUUUCCCCUGAUAGUGCUAAGGGGGCCUGGAAGAUUGGACUGGGCAGAGCUCUACACAGCGUGGCAAAGUGGCUGUGGCUAGACUGCCUCUCUGGAUUCCUCGUCACUCAGCAGGGCAUCUCUGAGAGAAAUGCC [U45A A64U] | 0.37
UACGUAGGUGGUUUUCCCCUGAUAGUGCUAAGGGGGCCUGGAAGAUUGGACUGGGCAGAGCUCAACACAGCGUGGCAAAGUGGCUGUGGCUAGACUGCCUCUCUGGAUUCCUCGUCACUCAGCAGGGCAUCUCUGAGAGAAAUGCC [U45A] | 1.21
UACGUAGGUGGUUUUCCCCUGAUAGUGCUAAGGGGGCCUGGAAGAUUGGACUGGGCAGAGCUCAACACAGCGUGGCAAAGUGGCUGUGGCUAGACUGCCUCUCUGGAUUCCUCGUCACUCAGCAGGGCGUCUCUGAGAGAAAUGCC [U45A A129G] | 1.26
UACGUAGGUGGUUUUCCCCUGAUAGUGCUAAGGGGGCCUGGAAGAUUGGACUGGGCAGAGCUCAACACAGCGUGGCAAAGUGGCUGUGGCAAGACUGCCUCUCUGGAUUCCUCGUCACUCAGCAGGGCAUCUCUGAGAGAAAUGCC [U45A U91A] | 0.46
UACGUAGGUGGUUUUCCCCUGAUAGUGCUAAGGGGGCCUGGAAGAUUGGACUGGGCAGAGCUCAACACAGCGUGGCAAAGUGGCUGUGGCUAGACUGCCUCUCUGGAUUCCUCGUCACUCAGCAGGGCAUCUCUGAGAGAAGUGCC [U45A A142G] | 1.55
